Measurements reported in the nanobody polyreactivity screen of Harvey et al. (2022).

Assay: yeast display, Sf9 membrane polyspecificity reagent, FACS + sequencing; frameworks hold sequencing errors
Method in brief: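 Synthetic nanobody libraries on Saccharomyces cerevisiae BJ5465 were galactose-induced for 36–48 hours, stained 1 hour at 4 °C with 10% biotinylated, detergent-solubilized Sf9 membrane reagent and enriched on streptavidin microbeads. FACS then separated cells into low and high (top ~1%) gates by anti-HA (expression) and streptavidin (reagent binding) fluorescence. Genes were colony-PCR amplified, MiSeq 2 × 250 sequenced and CDR-length filtered. A clone's polyreactivity label is that of its gate of origin.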

| Sequence | polyreactivity (PSR sort gate) |
| --- | --- |
| QVQLVESGGCLVQAGGSHRLSCAASGYIVWENAMGWYRPAPGKERELVAAITVTGGGTYYADSVKGRFTISRDNSKNPGYLHMNSLKPEDTAVYYCAPDEDNPWLWFYYWGQGTQVTVSS | low polyreactivity |
| QVQLVESGGGLVQAGGSLRLSCAASGIIFAKYAMGWYRQPPGKERELVASISRPGGSTYYADSVKGRFTISRDNAKNTVYLQMNSLKPEDTAVYDCNAPGLRDYDAEYDYWGQGTQVTVSS | high polyreactivity |
| QVQLVESGGGLVQAGGSLRLSCAASGFTFITNAMGLYRQAPGKERELVASISIGGSTNYADSVKGRFTISRDNAKNTVYLQMNSLKPEDTAVYYCAARVYRRLFLPGRYGRPLGYWGQGTQVTVSS | high polyreactivity |
| QVQLVESGGGLVQAGGSLRLSCSASGYIFLRNAMGWYRQAPGKERALVAAIRRTGGSTYYADSVKGRFTISRDNSKNTVYLQMTSLKPEDTAVYYCDKRSYTGYEYWGQGTQVTVSS | low polyreactivity |
| QVQLVESGGGLVQAGGSLRLSCASSGSIFTCYTMGWYRQAPGKEMELVAAISQTGGRTYYADSVKVRFTISRDNAKNTVYLQMNSLKAEDTAVYYCAARSKRLAHDYWGQGTQVTVSS | high polyreactivity |
| QVQLVESGGGLVQAGGSLRLSCAASGSTFTYNTMGWYRQAPGKERELVAAISSGGSTYYADSVKGRFTISRDNAKNTVYLQMNSLKPEDTAVYYCAATAQKDSRYGSRYYYWGQGTQVTVSS | high polyreactivity |
| QVQLVESGGGLVQAGGSLRLSCAASGFIVSTKVMGWYRQAPGKERELVADINTGGSTSYADSVKGRFTNSRDNAKNTVYLQMNSLKPEDTAVYSCAAVLQYYYLSTDDPYDYWGQGTQVTVSS | low polyreactivity |
| QVQLVESGGGLVQAGGSLRLSCAASGSIFRRNAMGWYRQAPGKDRELVAAITTRGSRTTYADSVKGRFTISRDNAKNTVYLQMNSMKPEDTAVYYCAARQHFSYSFHVAYDYWGQGTQVTVSS | high polyreactivity |
| QVQLVESGGGLVQAGGSLRLSCAASGRIFPGYVMGWYRQAHGKERELVAAITRGGSTYYADSVKGRFTISRDNAKNTVYLQMNSLKPEDTAVYYCAAKHSHIHYNYWGQGTQVTVSS | low polyreactivity |
| QVQLVESGGGLVQAGGSLRLSCAASGSTFRYYAMGWYRQSPGKEREFVAAITKVGSRTSYADSVKGRFTISRDNAKNTVYLQMNSLKPEDTAVYYCATRDSPRTKNGYYYWGQGTKVTVSS | high polyreactivity |
| QVQLVESGGGLVQAGGSLRLSCAASGSIFKRNAMGWYRQAPGKERELVAAIRVNGGITYYADSVKGRFTISRDNAKNTVFLQMNSLKPEDTSVYYCAVYSRQGLGYWGQGTQVTVSS | high polyreactivity |
| QVQLVESGGGLVQAGGSLRLICAASGSIFLYYAMGWYRQAPGKEMELVAAITSTGSTYYADSVKGRFTISRDNAKNTVYLQMNSLKPEDTAVYYCAAELRRLFYAYGYWGQGTQVTVSS | low polyreactivity |
| QVQLVDSGGGLVQAGGSLRLTFAASGRTFRWNVMGWYRQAPGKERELVATISRRSGSTNYADSVKGRFTISRDNAKITVYLQMNSLKPEDTAVYYCAVVIVRALVYAGDYWGQGTQVTVSS | low polyreactivity |
| QVQLVESGGGLVQAGGSLRLSCAASGRISYYAMGWYRQAPGKERELVAVISSRGGSTYYADSVKGRFTISRDNAKNTVYLQMNSLKPEDTAVYYCAADLYYDAWRLYVLGYATMDYWGQGTQVTVSS | high polyreactivity |
| QVQLVESGGGLVQAGGSLRLSCAASGFIFGTYAMGWYRQAPGKEREFVAAINWGGGRTYYADSVKGRFTISRDNAKNTVYLQMNSLKPEDTAVYYCNKRLIYYRGTYYSRRFDYWGQGTQVTVSS | high polyreactivity |
| QVQLVESGGGLVQAGGSLRLSCAASGRIFERNAMGWYRQAPGKERELVAAITYNGGRTYYADSVKGRFTISRDNAKNTVYLQMNSLKPEDTAVYYCNAQSRVTRSSYRGSPRYDYWGQGTQVTVSS | low polyreactivity |
| QVQLVESGGGLVHAGGSLRLSCAASGITYSRYAMGWYRQAPGKERELVAAITWDGGRTYYADTVKGRFTISRDIAKNTVYLQMNSVKPEDTAVYYCAAGSAWWYYWGQGTQVTVSS | high polyreactivity |
| QVQLVESGGGLVQAGGSLRLSCAASGLICPLNAMGWYRQAPGKERELVAAITYSGGGTYYADSVKGRFTISRDNAKNTVDLQMNSLKAEDTAVYYCAADGSVSYYTYYYWGQGTHVTVSS | low polyreactivity |
| QVQLVESGGGLVQAGGSLRLSCAASGSTFAANAMGWDRQAPGKERELVAAITSGGGSTYYADSVKGRFTISRDNAKNTVYLQMNSLKPEDTAVYYCAALQSHGVDYDYWGQGSQVTVSS | low polyreactivity |
| QVQLVESGGGLVQAGGSLRLSCAASGSIFFRYAMGWYRPAPGKERELVAAISSSGGSTYYADSVKGRFTISRDNAKNTVYLQMNSLKPEDTAVYYCAARYYSKYYYSPFDYWGQGTQVTVSS | high polyreactivity |
| QVQLVESWGGLVQAGGTLRLSCAASGRILYLNAMGWNRQAPGKEREFVAAISKSGGSTYYADSVKGRFTISRDNAMNSVYLQMNSLKPEDTAVYYCATRYRSAEYDFWGQGTQVTVSS | low polyreactivity |
| QVQLVESGGGLVQAGGSLRLSCSAYGSTLGYYAMGWYRQAPGKERELVAAIRYSDGNTYYADSVKGRFTISRDNAKNTVYLQMNSLKPEDTAVYYCAADGGYYGRDYWGQGTQVTVSS | high polyreactivity |

| Sequence | polyreactivity (PSR sort gate) |
| --- | --- |
| QVQLVESGGGLVQAGGSLRLSCAASGIFWANTMEWYRQAPGKERELVAAISWSGDRTYYADSVKGRFTISRDNAKNTVYLQMNSLKPEDTAVYYCAAEGTGLQRYGYFGDDGYWGQGTQVTVSS | low polyreactivity |
| QVQLVESGGGLVQAGGSLRLSCAASGSTFNWNAMGWYRQAPGTERELVAAISKSGGTTYYADSVKGRFTISRDNAKNTVYFQMNSLKPEDTAVYYCAAVRRYHSYPDGGYWGQGTQVTVSS | high polyreactivity |
| QVQLVESGGGLVQAGGSLRLSCDASGRIFGSYAMGWYRQAPGKERELVAAITYSGGRTYYADSVKGRFTISRDNAKNTVYLQMNSLKPEDTAVYYCNALGRLTSQYDYWGQGTQVTVSS | high polyreactivity |
| QVQLVESGGGLVKAGGSLRLSCAASGSIFQSNAMGWYRQAPGKERELVAAIRTSSGGGTYADSVKGRFTISRDNAKNTVYLQINSLKPEDTAVYDCNARKNNGGKWGYDYWGQGTQVTVSS | high polyreactivity |
| QVQLVESGGGLVQAGGSLRLSCAASGIIFGGYAMGWYRQAHGKERELVARITSGGSTNYADSVKGRFTISRDNAKNTVYLQMNSLKPEDTAVYYCNARGGWSWRFYYWGQGTQVTVSS | high polyreactivity |
| QVHLVESGGGLVQAGGSLRLSCAASGLIFLAYAMGWYRQAPGKERELVAAISTSGSTYYADSVKGRFTISRDNAKNTVYLQMNSLKPEDTAVYYCAAYDRWSVTYYYWGQGTQVTVSS | high polyreactivity |
| QDHLVESGGGLVQAGGSLRLSCAASGNIIWWNAMGWYRQAPGKERELVAAITSDSTTYYADSVKGRFTISRDNAKNTVYLQLNSLKPEDTAVYYCAAYSYGGQGVDYGYWGQGTQVTVSS | low polyreactivity |
| QVQLVESGGGLVQEGGSLRLSCAASGRIFTPYAMGWYRQAPGKERELVAVIRDGSTYYADSVKGRFTISRDNAKNTVYLQMNSLKPEDTAVYYCRYDIWVWWSGAYDYWGQGTQVTVSS | low polyreactivity |
| QVQLVESGGGLVQAGGSLRLSCAASGLIFVINAMGWYRQAPGKERELVATISSGVSTNYADSVKGRFTISRDNAKNTVYLQMNSLKPEDTAVYYCNAPEITYYYAPWETKIYDYWGQGTQVTVSS | low polyreactivity |
| QGQLVESGGGLVQAGGSLRLSCAASGSTFTYNAMGWYRQAPGKERELVASISSGTTTYYADSVKGRFTISRDNAKNTVYLQMNSLKPEDTAVYYCAVDSWSRVQGWLAHNYDYWGQGTQVTVSS | low polyreactivity |
| QVQLVESVGGLVQAGGSLRLSCAGSGSTFGRYTMGSSRQAPVKEREFVAAIRWSGGNTYYADTVKGRFTISRGKAKNTVYLQMNSLKTEDTAVFYCNRVYSTIGDYWGQGTQVTVSS | low polyreactivity |
| QVQLVESGGGIVQAGGSLRLSCAASGSIFDYYTKAWYRQAPGKEREMVAAISWSGGSTYYADSVKGRFTISRDNAKNTVYLQMYSLKPEDTAVYYCATRVRTRTGYQYYYWGQGTQVTVSS | high polyreactivity |
| QVQLVESGGGLVQAGGSLRLTCAASGLTFWWYAMGWYRQAPGKERELVAGITGGGSTSYADSVKGRFTISRDNAKNTVYLQMNSLIQEDTAVYYCAASPYNGQRTWYKYFFLGDYWGQGTQVTVSS | high polyreactivity |
| QVQLVESGGGLVQAGGSLRLSCAASGRTSRFYAMGWYRQAPGKERELVARITTRGGSTYYADSVKGRFTISRDNAKNTVYLQMNSLKPEDTAVYYCNAERAGTYRYDYWGQGTQVTVSS | high polyreactivity |
| QVQLVESGGGLVQAGRSLRLSCASSGSTIVNYAMGWYRQAPGKEMELVAAISRSGGRTYYADSVKGRFTISRDNAKNTVYLQMNSLKPEDTAVYYCARLLLSPEYGYWGQGTQVTVSS | high polyreactivity |
| QVQLVESGGGLDQAGGSLRLSCAASGLIFRPYDMGWYSQAPGKERELVAAISNGDSTNYADSVKGRFTISRDNAKNTDYLEMNSLKPEDTAVYYCNAAIPSWLEYEYWGQGTQVTVSS | low polyreactivity |
| QVQLVESGGGLVQAGGRLRLSCAASGFIFKQYVMGWYRQAPGKERELVAAISRSGGSTYYADSVKGRFTISRDNAKNTVYLQMNSLKPEDNAVYYCNADNYYPDYDSWGQGTQVTVSS | high polyreactivity |
| QVQLVESGGGLVQAGGSLRLSCAASGRILSANAMGWYRQAPGKERELVAAITYSGDNTYYADSVKGRFTISRDNAKNTVYLQMNSLKPEDTAVYYCAREFQVDGGEEDYWGQGTQVTVSS | low polyreactivity |
| QVQLVESGGGLVQAGGSLRLSCAASGRTFPSYAMGWYRQAPGTERELVAAITVSGGNTYYAHSVKGRFTISRDNAKNTVYLQMNSLKPEDTAVYYCNTPSYVSWYVHYYYWGQGTQVTVSS | low polyreactivity |
| QVQLVESGGGLVQAGGSLRLSCAASGIIFYHYAMGWYRPAPGKEREFVAAITWDGGNTSYADSVKGRFTISRDYAKNTFYLQMNSLIPEDTAVYYCNTDRGPVKVSPLYESWGQGTQVTVSS | low polyreactivity |
| QVQLQERGGGLVQAGGSLRMSCAASGSIFVSVTMGWYRQAPGKERELVASIGRGSTTNHADSVKGLFTISRDNAKNIVYLLMNSLKPEDTAVYYCAALESYGKYHGYWGQGTQVTVSS | low polyreactivity |
